Tests used:
[1] = biological target: T1, CTLA4 (antigen immobilised on the biosensor) (human, UniProt P16410 36-161, biotinylated in Examples 30 and 35); experiment: Octet biolayer interferometry; antigen immobilised, B-Body as analyte
T1 construct: also called hCTLA4; biotinylated human CTLA4

[2] = biological target: T1, CTLA4 (antigen immobilised on the …); experiment: BLI steady state analysis, biotinylated CTLA4 on streptavidin sensor, two-fold dilutions of the binding molecule from 2 µM to 31.25 nM; monovalent

T1 sequence (P16410 36-161 limits assumed): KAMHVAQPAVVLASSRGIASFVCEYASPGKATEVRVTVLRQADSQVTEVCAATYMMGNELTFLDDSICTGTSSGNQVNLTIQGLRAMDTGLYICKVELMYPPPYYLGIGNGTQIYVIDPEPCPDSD

B1: bivalent bispecific B-Body “BC1” (PD1 x Antigen A) (bispecific antibody)
chain 1: not shown
chain 2: EVQLVESGGGLVQPGGSLRLSCAASGFTFSDYDIHWVRQAPGKGLEWVGDITPYDGTTNYADSVKGRFTISADTSKNTAYLQMNSLRAEDTAVYYCARLVGEIATGFDYWGQGTLVTVSSASPREPQVYTDPPSRDELTKNQVSLTCLVKGFYPSDIAVEWESNGQPENNYKTTPPVLDSDGSFFLYSKLTVDKSRWQQGNVFSCSVMHEALHNHYTQKSLSLSGEC
chain 3: not shown
chain 4: QVQLVESGGGVVQPGRSLRLDCKASGITFSNSGMHWVRQAPGKGLEWVAVIWYDGSKRYYADSVKGRFTISRDNSKNTLFLQMNSLRAEDTAVYYCATNDDYWGQGTLVTVSSASTKGPSVFPLAPSSKSTSGGTAALGCLVKDYFPEPVTVSWNSGALTSGVHTFPAVLQSSGLYSLSSVVTVPSSSLGTQTYICNVNHKPSNTKVDKKVEPPKSC
notes: Chains 1+2 form the Antigen A site, chains 3+4 the PD1 site (nivolumab variable domains)
B1: no binding (tested: not given on the sheet) [1].

B2: BC1 1×1 B-Body SNIPER 19×8 binding molecule (CTLA4-19 x CD25-8) (bispecific antibody)
chain 1: not shown
chain 2: EVQLVESGGGLVQPGGSLRLSCAASGFTFSGYWIHWVRQAPGKGLEWVAAITSRDSYTYYADSVKGRFTISADTSKNTAYLQMNSLRAEDTAVYYCARGSYLGSAFDYWGQGTLVTVSSASPREPQVYTDPPSRDELTKNQVSLTCLVKGFYPSDIAVEWESNGQPENNYKTTPPVLDSDGSFFLYSKLTVDKSRWQQGNVFSCSVMHEALHNHYTQKSLSLSGEC
chain 3: SDIQMTQSPSSLSASVGDRVTITCRASQSVSSAVAWYQQKPGKAPKLLIYSASSLYSGVPSRFSGSRSGTDFTLTISSLQPEDFATYYCQQYSSQPATFGQGTKVEIKRTVAAPSVFIFPPSDEQLKSGTASVVCLLNNFYPREAKVQWKVDNALQSGNSQESVTEQDSKDSTYSLSSTLTLSKADYEKHKVYACEVTHQGLSSPVTKSFNRGECDKTHTCPPCPAPELLGGPSVFLFPPKPKDTLMISRTPEVTCVVVDVSHEDPEVKFNWYVDGVEVHNAKTKPREEQYNSTYRVVSVLTVLHQDWLNGKEYKCKVSNKALPAPIEKTISKAKGQPREPQVCTLPPSREEMTKNQVSLSCAVKGFYPSDIAVEWESNGQPENNYKTTPPVLDSDGSFFLVSKLTVDKSRWQQGNVFSCSVMHEALHNHYTQKSLSLSPGK
chain 4: EVQLVESGGGLVQPGGSLRLSCAASGFTFSSYYIHWVRQAPGKGLEWVAKIQPKGGYTYYADSVKGRFTISADTSKNTAYLQMNSLRAEDTAVYYCARSYYYRPHAFDYWGQGTLVTVSSASTKGPSVFPLAPSSKSTSGGTAALGCLVKDYFPEPVTVSWNSGALTSGVHTFPAVLQSSGLYSLSSVVTVPSSSLGTQTYICNVNHKPSNTKVDKKVEPPKSC
B2 gave a Kd [2] of 19 nM.
